Reference: patent publication US7612044

Key:
[1] = molecular target: T1, HLA-A2.1 (heavy chain with human beta 2-microglobulin) (human); test: competition with 5 nM radiolabeled HBc18-27 for HLA-A2.1 + b2m, gel filtration
[2] = molecular target: T1, HLA-A2.1 (heavy chain with human beta …); test: competition with radiolabeled HBc18-27 for soluble HLA-A2.1 + b2m, gel filtration
[3] = molecular target: T1, HLA-A2.1 (heavy chain with human beta …); test: IC50 of standard HBc18-27 peptide ([…] nM) / IC50 of sample peptide, same competition assay

YLWGQYWQV (modifications not checked) [G9-154-1Y2L]
IC50 [1]: 1.7 nM

KLWGQYWQV (modifications not checked) [G9-154-2L]
IC50 [1]: 2 nM

KTYGQYWQV (modifications not checked) [G9-154-3Y]
IC50 [1]: 30 nM

ALWGQYWQV (modifications not checked) [G9-154-1A2L]
IC50 [1]: 2.3 nM

ATWGQYWQV (modifications not checked) [G9-154-1A]
IC50 [1]: 5.2 nM

FLWGQYWQV (modifications not checked) [G9-154-1F2L]
IC50 [1]: 2.6 nM

LLDGTATLRL (modifications not checked) [gp100 peptide G10-4]
IC50 [2]: 483 nM
Ratio to Standard [3]: 0.01

KIWGQYWQV (modifications not checked) [G9-154-2I]
IC50 [1]: 3 nM

ILSQVPFSV (modifications not checked) [G9-209-2L3S]
IC50 [1]: 20 nM

FTWGQYWQV (modifications not checked) [G9-154-1F]
IC50 [1]: 1.6 nM

LTWGQYWQV (modifications not checked) [G9-154-1L]
IC50 [1]: 3.4 nM

KTFGQYWQV (modifications not checked) [G9-154-3F]
IC50 [1]: 21 nM

YMNGTMSQV (modifications not checked) [tyrosinase peptide T9369]
IC50 [2]: 40 nM
Ratio to Standard [3]: 0.13

KMWGQYWQV (modifications not checked) [G9-154-2M]
IC50 [1]: 6.5 nM

WLWGQYWQV (modifications not checked) [G9-154-1W2L]
IC50 [1]: 2.8 nM

VLYRYGSFSV (modifications not checked) [gp100 peptide G10-5]
IC50 [2]: 13 nM
Ratio to Standard [3]: 0.38

ILYQVPFSV (modifications not checked) [G9-209-2L3Y]
IC50 [1]: 5 nM

ITMQVPFSV (modifications not checked) [G9-209-3M]
IC50 [1]: 40 nM

YTWGQYWQV (modifications not checked) [G9-154-1Y]
IC50 [1]: 2.5 nM

WTWGQYWQV (modifications not checked) [G9-154-1W]
IC50 [1]: 60 nM

LLWGQYWQV (modifications not checked) [G9-154-1L2L]
IC50 [1]: 1.6 nM
